The subject of this data set is Escherichia coli TOP10. Nature of the data set: shrunken log2 fold change of peptide-encoding DNA abundance (4.5 h post-induction vs induction); higher = less antimicrobial activity (less host growth inhibition). The conditions noted are these: time post-induction: 4.5 h; library: site-saturation at positions 5, 18, 19, 20.
Consider RRIRKRPPRLPRPRPRPGCDPRP, for which the “shrunken log2 fold change” value was determined as 0.826.
As for RRIRKRPPRLPRPRPRPANGPRP, the figure is 0.566; as for RRIRCRPPRLPRPRPRPPTYPRP, -0.133.
As for RRIRGRPPRLPRPRPRPRDVPRP, the figure is 0.654.
Take RRIRKRPPRLPRPRPRPKHSPRP: the “shrunken log2 fold change” value was -0.147.
As for RRIRRRPPRLPRPRPRPKQIPRP, the “shrunken log2 fold change” value is 0.289.
With RRIRFRPPRLPRPRPRPNTMPRP, the “shrunken log2 fold change” value is -0.648.
As for RRIRVRPPRLPRPRPRPKFRPRP, the figure is 0.0323; as for RRIRTRPPRLPRPRPRPWGLPRP, 0.00838.
Consider RRIRWRPPRLPRPRPRPTPIPRP, for which the “shrunken log2 fold change” value was 0.419.
With RRIRCRPPRLPRPRPRPDCLPRP the figure was -0.494; with RRIRARPPRLPRPRPRPCIEPRP, 0.105.
With RRIRKRPPRLPRPRPRPIYGPRP the figure was -0.00172.
With RRIRKRPPRLPRPRPRPETLPRP the figure was 0.0437; with RRIRARPPRLPRPRPRPHFFPRP, 1.8; with RRIRTRPPRLPRPRPRPNNKPRP, -0.474.
In the case of RRIRKRPPRLPRPRPRPFGAPRP, the “shrunken log2 fold change” value was determined as 0.45.
With RRIRPRPPRLPRPRPRPENGPRP the figure was -0.0225; with RRIRMRPPRLPRPRPRPDVCPRP, 0.0762.
As for RRIRRRPPRLPRPRPRPRFIPRP, the figure is 0.00289; as for RRIRRRPPRLPRPRPRPILWPRP, 0.0428.
As for RRIRVRPPRLPRPRPRPCLFPRP, the figure is -0.592; as for RRIRLRPPRLPRPRPRPTTEPRP, -0.00894; as for RRIRHRPPRLPRPRPRPEFIPRP, -0.0433.
RRIRKRPPRLPRPRPRPTHGPRP: the “shrunken log2 fold change” value was found to be 0.547.
As for RRIRHRPPRLPRPRPRPINYPRP, the “shrunken log2 fold change” value was -0.248.
With RRIRNRPPRLPRPRPRPAKPPRP the figure was -0.00229.
For RRIRMRPPRLPRPRPRPDHDPRP, the “shrunken log2 fold change” value is -0.0765.
With RRIRHRPPRLPRPRPRPGTEPRP the figure was -0.0642.
Regarding RRIRTRPPRLPRPRPRPCHHPRP, the “shrunken log2 fold change” value is -0.0688.
In the case of RRIRVRPPRLPRPRPRPQGKPRP, the “shrunken log2 fold change” value worked out at 0.00549.
As for RRIRRRPPRLPRPRPRPWGGPRP, the figure is 0.53.
With RRIRYRPPRLPRPRPRPVWQPRP the figure was -0.288.
RRIRWRPPRLPRPRPRPRCCPRP: the “shrunken log2 fold change” value turned out to be 0.448.
As for RRIRGRPPRLPRPRPRPEPAPRP, the figure is 1.69; as for RRIRNRPPRLPRPRPRPIMVPRP, 0.00732.
With RRIRIRPPRLPRPRPRPYFGPRP the figure was -0.0455; with RRIRIRPPRLPRPRPRPIREPRP, -0.0273; with RRIRMRPPRLPRPRPRPCQTPRP, 0.0245.
With RRIRYRPPRLPRPRPRPHTVPRP the figure was -1.21; with RRIRQRPPRLPRPRPRPIWRPRP, -0.068.
In the case of RRIRTRPPRLPRPRPRPKNDPRP, the “shrunken log2 fold change” value was -0.362.
For RRIRCRPPRLPRPRPRPEDLPRP, the “shrunken log2 fold change” value came to 0.117.
With RRIRVRPPRLPRPRPRPQHKPRP the figure was -0.483; with RRIRERPPRLPRPRPRPSMVPRP, -0.86.
For the sequence RRIRMRPPRLPRPRPRPWQAPRP, the “shrunken log2 fold change” value was 0.00735.
Take RRIRRRPPRLPRPRPRPNPIPRP: the “shrunken log2 fold change” value stood at 0.208.
On to RRIRPRPPRLPRPRPRPHCMPRP, for which the “shrunken log2 fold change” value is -0.195.
With RRIRDRPPRLPRPRPRPFTYPRP the figure was -0.0134.
As for RRIRARPPRLPRPRPRPEEVPRP, the “shrunken log2 fold change” value is 0.0554.
With RRIRDRPPRLPRPRPRPIFCPRP the figure was -0.0484; with RRIRIRPPRLPRPRPRPLRGPRP, 0.694.
Turning to RRIRCRPPRLPRPRPRPDFFPRP, the “shrunken log2 fold change” value was 0.035.
RRIRIRPPRLPRPRPRPQWGPRP: the “shrunken log2 fold change” value was -0.000367.
With RRIRARPPRLPRPRPRPWIYPRP the figure was -0.647; with RRIRMRPPRLPRPRPRPHLDPRP, 0.108.
As for RRIRTRPPRLPRPRPRPWWVPRP, the figure is -0.0227.
In the case of RRIRWRPPRLPRPRPRPKADPRP, the “shrunken log2 fold change” value amounted to 0.353.
As for RRIRQRPPRLPRPRPRPMRKPRP, the figure is 0.0266; as for RRIRCRPPRLPRPRPRPYACPRP, -0.0609.
As for RRIRLRPPRLPRPRPRPNLLPRP, the figure is 0.153; as for RRIRMRPPRLPRPRPRPEPVPRP, 1.01.
As for RRIRLRPPRLPRPRPRPGWRPRP, the figure is 0.317; as for RRIRCRPPRLPRPRPRPGQYPRP, -0.479; as for RRIRSRPPRLPRPRPRPHFRPRP, -0.197.
Regarding RRIRNRPPRLPRPRPRPYREPRP, the “shrunken log2 fold change” value was 0.0155.
For the sequence RRIRSRPPRLPRPRPRPTYPPRP, the “shrunken log2 fold change” value was -0.0945.
With RRIRGRPPRLPRPRPRPTFTPRP the figure was 0.638; with RRIRHRPPRLPRPRPRPLCDPRP, -0.397; with RRIRHRPPRLPRPRPRPYNIPRP, -0.244.
Regarding RRIRSRPPRLPRPRPRPMDTPRP, the “shrunken log2 fold change” value was 0.0136.
With RRIRHRPPRLPRPRPRPFWLPRP the figure was 0.137; with RRIRFRPPRLPRPRPRPRPTPRP, 0.732; with RRIRARPPRLPRPRPRPYQRPRP, -0.229.
With RRIRARPPRLPRPRPRPYLIPRP the figure was -0.659; with RRIRDRPPRLPRPRPRPSVMPRP, 0.198.
As for RRIRRRPPRLPRPRPRPGQCPRP, the figure is 0.22; as for RRIRGRPPRLPRPRPRPGWQPRP, 0.0826.
On to RRIRFRPPRLPRPRPRPVKRPRP, for which the “shrunken log2 fold change” value was found to be 0.0219.
With RRIRHRPPRLPRPRPRPMNPPRP, the “shrunken log2 fold change” value is -0.379.
As to RRIRVRPPRLPRPRPRPTATPRP, the “shrunken log2 fold change” value stood at 0.272.
With RRIRYRPPRLPRPRPRPGTNPRP, the “shrunken log2 fold change” value was -0.163.
With RRIRERPPRLPRPRPRPWGMPRP the figure was 0.115.
With RRIRPRPPRLPRPRPRPHWNPRP, the “shrunken log2 fold change” value is -0.447.
With RRIRTRPPRLPRPRPRPWDTPRP the figure was -0.15; with RRIRHRPPRLPRPRPRPPERPRP, 0.511; with RRIRHRPPRLPRPRPRPTFLPRP, -0.0769.
With RRIRTRPPRLPRPRPRPIKRPRP, the “shrunken log2 fold change” value is -0.0164.
In the case of RRIRHRPPRLPRPRPRPLRMPRP, the “shrunken log2 fold change” value was -0.0592.
With RRIRTRPPRLPRPRPRPLPSPRP the figure was -0.0373; with RRIRFRPPRLPRPRPRPAVPPRP, 0.0613; with RRIRMRPPRLPRPRPRPMAEPRP, 2.79.
With RRIRDRPPRLPRPRPRPEQRPRP, the “shrunken log2 fold change” value was determined as 0.0765.
With RRIRTRPPRLPRPRPRPVTWPRP the figure was -0.0681.
In the case of RRIRKRPPRLPRPRPRPCFNPRP, the “shrunken log2 fold change” value was -0.0824.
With RRIRRRPPRLPRPRPRPPRNPRP the figure was 1.28; with RRIRARPPRLPRPRPRPIYNPRP, -0.668.
Regarding RRIRLRPPRLPRPRPRPVNNPRP, the “shrunken log2 fold change” value is -0.269.
With RRIRSRPPRLPRPRPRPLALPRP the figure was -0.107; with RRIRIRPPRLPRPRPRPVIKPRP, -0.918; with RRIRCRPPRLPRPRPRPESIPRP, -0.263.
Regarding RRIRRRPPRLPRPRPRPGMIPRP, the “shrunken log2 fold change” value was -0.00969.
With RRIRPRPPRLPRPRPRPDVHPRP the figure was -0.0196; with RRIRVRPPRLPRPRPRPCTTPRP, 0.167; with RRIRERPPRLPRPRPRPCFQPRP, -0.25.
With RRIRPRPPRLPRPRPRPVAYPRP the figure was -0.173.
With RRIRNRPPRLPRPRPRPDIKPRP the figure was -0.171; with RRIRKRPPRLPRPRPRPLCDPRP, 0.376.
On to RRIRNRPPRLPRPRPRPAVYPRP, for which the “shrunken log2 fold change” value is -0.0398.
Take RRIRIRPPRLPRPRPRPQPPPRP: the “shrunken log2 fold change” value is -0.0122.
As for RRIRMRPPRLPRPRPRPEGQPRP, the figure is -0.00185; as for RRIRTRPPRLPRPRPRPANQPRP, -0.102.
RRIRDRPPRLPRPRPRPPVPPRP: the “shrunken log2 fold change” value worked out at 0.635.
With RRIRGRPPRLPRPRPRPCREPRP the figure was -0.368; with RRIRKRPPRLPRPRPRPPFCPRP, -0.0397.
With RRIRTRPPRLPRPRPRPLETPRP, the “shrunken log2 fold change” value was found to be 0.0461.
Regarding RRIRRRPPRLPRPRPRPMDSPRP, the “shrunken log2 fold change” value is -0.0307.
As for RRIRWRPPRLPRPRPRPSCPPRP, the “shrunken log2 fold change” value was -0.33.
For RRIRVRPPRLPRPRPRPHTMPRP, the “shrunken log2 fold change” value was -0.252.
Turning to RRIRYRPPRLPRPRPRPWTPPRP, the “shrunken log2 fold change” value was -0.0576.
As for RRIRVRPPRLPRPRPRPHFYPRP, the figure is -0.173.
With RRIRHRPPRLPRPRPRPGFRPRP the figure was 0.237.
As for RRIRQRPPRLPRPRPRPFTNPRP, the figure is -0.0235.
Turning to RRIRPRPPRLPRPRPRPWSAPRP, the “shrunken log2 fold change” value was -0.00633.
Take RRIRPRPPRLPRPRPRPHGDPRP: the “shrunken log2 fold change” value is -0.0431.
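Also: peptides expressed intracellularly from a pBAD plasmid library in pooled LB shake-flask culture, induced with 0.3% L-arabinose, DNA abundance read by NGS, three biological replicates, DESeq2 with apeglm shrinkage.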
